Data from patent US20240132603A1 (HARBOUR BIOMED US, published 2024).

T1: CD40LG (UniProt P29965 1-261)
T1 construct: whole, on cells; also called HEK293-CD40LG
T1 sequence (looked up): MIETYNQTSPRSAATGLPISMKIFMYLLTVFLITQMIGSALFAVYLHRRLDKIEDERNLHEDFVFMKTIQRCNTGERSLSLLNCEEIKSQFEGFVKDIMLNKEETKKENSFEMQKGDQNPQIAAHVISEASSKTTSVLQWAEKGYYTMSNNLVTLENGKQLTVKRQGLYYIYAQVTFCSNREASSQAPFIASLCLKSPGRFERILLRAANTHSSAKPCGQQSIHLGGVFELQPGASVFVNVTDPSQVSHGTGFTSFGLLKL

T2: TSPAN4-FLAG (UniProt O14817 1-238, limits assumed)
T2 construct: whole, on cells; order of protein and tag unknown; also called HEK293-TSPAN4; not shown: FLAG tag
T2 sequence (looked up): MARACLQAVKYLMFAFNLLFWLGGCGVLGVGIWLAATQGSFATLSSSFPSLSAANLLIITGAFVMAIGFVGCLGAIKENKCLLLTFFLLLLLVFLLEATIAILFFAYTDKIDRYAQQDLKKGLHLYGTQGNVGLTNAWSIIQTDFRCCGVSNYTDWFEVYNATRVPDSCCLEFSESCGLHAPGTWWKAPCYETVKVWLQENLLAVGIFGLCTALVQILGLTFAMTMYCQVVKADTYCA

T3: TSPAN12-FLAG (UniProt O95859 1-305)
T3 construct: whole, on cells; order of protein and tag unknown; also called HEK293-TSPAN12; not shown: FLAG tag
T3 sequence (looked up): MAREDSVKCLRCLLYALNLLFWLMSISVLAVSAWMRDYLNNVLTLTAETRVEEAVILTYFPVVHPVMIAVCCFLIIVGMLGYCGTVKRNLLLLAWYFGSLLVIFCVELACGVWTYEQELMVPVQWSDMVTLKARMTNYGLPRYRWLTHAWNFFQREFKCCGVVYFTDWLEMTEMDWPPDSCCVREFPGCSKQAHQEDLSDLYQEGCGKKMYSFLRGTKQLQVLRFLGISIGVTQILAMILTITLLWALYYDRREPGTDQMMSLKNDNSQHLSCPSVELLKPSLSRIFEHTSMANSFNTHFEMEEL

B1: PR006155 (antibody, human IgG1, kappa)
heavy: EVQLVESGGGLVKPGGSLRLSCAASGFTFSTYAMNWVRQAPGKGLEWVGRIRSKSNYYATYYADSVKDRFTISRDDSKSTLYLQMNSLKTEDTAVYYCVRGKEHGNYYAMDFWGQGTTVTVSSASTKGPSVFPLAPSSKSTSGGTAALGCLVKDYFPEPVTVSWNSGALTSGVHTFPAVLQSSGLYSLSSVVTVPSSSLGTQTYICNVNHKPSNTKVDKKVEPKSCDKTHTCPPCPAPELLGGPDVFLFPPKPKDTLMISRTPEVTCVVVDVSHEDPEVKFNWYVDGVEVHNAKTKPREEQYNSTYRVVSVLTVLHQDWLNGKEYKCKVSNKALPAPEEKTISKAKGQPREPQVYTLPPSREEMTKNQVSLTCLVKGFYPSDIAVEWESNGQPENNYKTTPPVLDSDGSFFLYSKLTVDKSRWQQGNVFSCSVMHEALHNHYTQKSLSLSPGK
light: DIVMTQSPLSLPVTLGQPASISCRSSKSLLHSNAKIYLYWFQQRPGQSPRLLIYRMSNLASGVPDRFSGSGSGTDFTLKISRVEAEDVGVYYCMQHLEYPLTFGQGTKLEIKRTVAAPSVFIFPPSDEQLKSGTASVVCLLNNFYPREAKVQWKVDNALQSGNSQESVTEQDSKDSTYSLSSTLTLSKADYEKHKVYACEVTHQGLSSPVTKSFNRGEC
B2: PR006276 (antibody, human IgG1, kappa)
heavy: not shown
light: B1 light
B3: PR006275 (antibody, human IgG1, kappa)
heavy: not shown
light: B1 light
B4: PR006166 (antibody, human IgG1, kappa)
heavy: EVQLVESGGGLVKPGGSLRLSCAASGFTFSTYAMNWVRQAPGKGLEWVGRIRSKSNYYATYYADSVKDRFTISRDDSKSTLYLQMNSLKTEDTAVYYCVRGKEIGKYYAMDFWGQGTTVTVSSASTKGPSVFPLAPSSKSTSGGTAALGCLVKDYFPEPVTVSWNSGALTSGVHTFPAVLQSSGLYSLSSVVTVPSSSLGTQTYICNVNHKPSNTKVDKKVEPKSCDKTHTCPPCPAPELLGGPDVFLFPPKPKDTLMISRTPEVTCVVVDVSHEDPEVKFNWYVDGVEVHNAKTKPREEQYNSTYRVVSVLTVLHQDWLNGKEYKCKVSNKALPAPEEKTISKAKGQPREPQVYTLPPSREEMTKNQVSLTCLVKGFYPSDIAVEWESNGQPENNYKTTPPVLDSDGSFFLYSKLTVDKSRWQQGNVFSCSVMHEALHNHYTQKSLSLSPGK
light: B1 light

Tests used:
cynomolgus monkey CCR8 [1] = target: T4, cynomolgus monkey CCR8 (cynomolgus monkey, UniProt G7NYJ2 1-355); experiment: FACS, CHO-K1-CynoCCR8 cells
T4 construct: whole, on cells; also called CynoCCR8
Method in brief: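 Anti-CCR8 antibodies titrated in 5-fold steps from 200 nM onto 1E6 cells/mL CHO-K1-CynoCCR8 in DPBS/2% FBS, 1 h at 4 °C. Bound antibody detected with 1:1000 secondary antibody, 40 min at 4 °C, then flow cytometry.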

human CCR8 [2] = target: T5, human CCR8 (human, UniProt P51685 1-355); experiment: KinExA, cell line overexpressing human CCR8; human CCR8 cell line
T5 construct: whole, on cells; construct used for the overexpressing cell lines is not described; also called hCCR8
Procedure: (§1) To 200 mg of PMMA hard beads was added 30 μg of Goat Anti-Human IgG Fc antibody, and the mixture was supplemented with a coating solution to 1.0 mL, with a buffer composition of 1×PBS, pH7.4, to ensure that the beads were completely suspended in the solution. After being spun at room temperature for 2 h, the beads were either allowed to settle naturally or centrifuged briefly at low speed, and the supernatant was removed. 1 mL of blocking buffer (1×PBS, pH7.4, containing 10 mg/mL BSA) was added to ensure that the beads were resuspended in the blocking solution, and the beads were spun at room temperature for 1 h. An appropriate concentration of PR005565, PR006155 or PR006166 was used as the 100% signal value, and PBS blank was used as the background value. The net signal values were detected using 0.5 μg/mL Alexa Fluor® 647 Goat Anti-Human IgG. The cell line overexpressing human or monkey CCR8 was collected by centrifugation at 1500 g for 5 min, washed 2 times with 2 PBS and centrifuged at 350 g. The cells were collected in a 1.5 mL centrifuge tube. 10 mL of 0.2 nM PR005565, PR006155 or PR006166 solution was prepared. The total cells were supplemented with 0.2 nM PR005565, PR006155 or PR006166 solution to 0.82 mL, and diluted in a 2-fold gradient with 0.2 nM PR005565, PR006155 or PR006166 as a buffer. […]

human CCR8 [3] = target: T5, human CCR8; experiment: FACS, CHO-K1-hCCR8 cells
Method in brief: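 Anti-CCR8 antibodies, in 5-fold serial dilution from 200 nM in DPBS with 2% FBS, were bound to detached cells for 1 h at 4 °C. A 1:1000 secondary antibody followed for 40 min at 4 °C, and binding was read by flow cytometry.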

CD40LG [4] = target: T1, CD40LG; experiment: flow cytometry, HEK293-CD40LG cells
MMP16 [5] = target: T6, MMP16 (UniProt P51512 120-607); experiment: flow cytometry, HEK293-MMP16 cells
T6 construct: whole, on cells; also called HEK293-MMP16

CD147 = target: T7, CD147; experiment: flow cytometry, HEK293-CD147 cells
T7 construct: also called HEK293-CD147

TSPAN4-FLAG [6] = target: T2, TSPAN4-FLAG; experiment: flow cytometry, HEK293-TSPAN4 cells
MMP16 [7] = target: T6, MMP16; experiment: flow cytometry, transfected HEK293 cells
Description: (§2) After that, HEK293 cells were transfected with commercial MMP16 (protein information can be found under Uniprot P51512), CD40LG (protein information can be found under Uniprot P29965), CD147 (protein information can be found under Uniprot P35612), TSPAN4 (protein information can be found under Uniprot 014817), and TSPAN12 (protein information can be found under Uniprot 095859) plasmids for further verification of the binding of PR005565, PR006275 and PR006276 to these proteins. […] However, the binding values of PR005565, PR006275 and PR006276 to MMP16, CD40LG, CD147, TSPAN4 and TSPAN12 after transfection of HEK293 cells were all consistent with the signal values of HEK293 cells themselves. Thus, PR005565, PR006275 and PR006276 had no non-specific binding to MMP16, CD40LG, CD147, TSPAN4 and TSPAN12 proteins (see Table 50).

TSPAN4-FLAG [8] = target: T2, TSPAN4-FLAG; experiment: flow cytometry, transfected HEK293 cells
Description: as §2

CD40LG [9] = target: T1, CD40LG; experiment: flow cytometry, transfected HEK293 cells
Description: as §2

TSPAN12-FLAG [10] = target: T3, TSPAN12-FLAG; experiment: flow cytometry, transfected HEK293 cells
Description: as §2

TSPAN12-FLAG [11] = target: T3, TSPAN12-FLAG; experiment: flow cytometry, HEK293-TSPAN12 cells
Description: as §2

cynomolgus monkey CCR8 [12] = target: T4, cynomolgus monkey CCR8; experiment: KinExA, cell line overexpressing monkey CCR8; monkey CCR8 cell line
Procedure: as §1

T6 sequence (P51512 120-607): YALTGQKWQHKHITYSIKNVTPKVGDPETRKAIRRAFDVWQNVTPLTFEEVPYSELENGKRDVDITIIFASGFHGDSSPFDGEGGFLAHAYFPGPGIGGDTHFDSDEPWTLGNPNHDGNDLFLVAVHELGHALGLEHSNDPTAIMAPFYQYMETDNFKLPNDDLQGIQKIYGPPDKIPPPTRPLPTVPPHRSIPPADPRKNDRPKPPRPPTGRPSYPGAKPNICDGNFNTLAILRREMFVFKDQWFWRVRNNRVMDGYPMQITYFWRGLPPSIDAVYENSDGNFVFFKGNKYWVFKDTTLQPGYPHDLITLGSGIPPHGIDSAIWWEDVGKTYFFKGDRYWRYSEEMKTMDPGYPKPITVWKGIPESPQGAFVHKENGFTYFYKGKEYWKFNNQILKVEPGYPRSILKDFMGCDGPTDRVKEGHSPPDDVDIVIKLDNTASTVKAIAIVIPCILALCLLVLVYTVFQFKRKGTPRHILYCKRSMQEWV
T5 sequence (P51685 whole entry): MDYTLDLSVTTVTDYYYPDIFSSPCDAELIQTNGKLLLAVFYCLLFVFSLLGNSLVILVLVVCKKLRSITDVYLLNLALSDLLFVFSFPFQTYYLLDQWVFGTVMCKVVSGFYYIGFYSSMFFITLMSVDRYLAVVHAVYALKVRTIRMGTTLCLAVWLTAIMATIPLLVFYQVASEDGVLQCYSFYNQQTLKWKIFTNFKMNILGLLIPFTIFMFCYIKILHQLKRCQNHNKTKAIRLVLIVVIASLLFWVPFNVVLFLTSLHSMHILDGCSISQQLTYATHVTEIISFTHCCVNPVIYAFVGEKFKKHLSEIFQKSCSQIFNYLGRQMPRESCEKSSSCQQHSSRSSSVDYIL
T4 sequence (G7NYJ2 entry or part of it): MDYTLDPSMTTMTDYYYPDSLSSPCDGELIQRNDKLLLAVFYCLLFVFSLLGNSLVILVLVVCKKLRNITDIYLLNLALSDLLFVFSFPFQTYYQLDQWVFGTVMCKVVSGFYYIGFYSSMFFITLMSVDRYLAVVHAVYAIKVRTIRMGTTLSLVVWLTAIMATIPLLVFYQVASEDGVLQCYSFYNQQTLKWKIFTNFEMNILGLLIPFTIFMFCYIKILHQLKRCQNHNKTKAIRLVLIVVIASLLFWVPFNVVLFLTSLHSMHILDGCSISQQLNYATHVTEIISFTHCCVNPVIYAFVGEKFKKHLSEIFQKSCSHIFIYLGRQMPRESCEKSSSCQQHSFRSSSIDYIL

Binder | EC50 (cynomolgus monkey CCR8 [1]) | Kd (human CCR8 [2]) | EC50 (human CCR8 [3]) | MFI (CD40LG [4]) | MFI (MMP16 [5]) | MFI (CD147) | MFI (TSPAN4-FLAG [6]) | binding result (MMP16 [7]) | binding result (TSPAN4-FLAG [8]) | binding result (CD40LG [9]) | binding result (TSPAN12-FLAG [10]) | MFI (TSPAN12-FLAG [11]) | Kd (cynomolgus monkey CCR8 [12])
B1 | 0.39 nM | 0.0214 nM | 0.38 nM | – | – | – | – | – | – | – | – | – | –
B2 | 0.51 nM | – | 0.4 nM | 152 | 160 | 152 | 203 | no binding | no binding | no binding | no binding | 185 | –
B3 | 0.47 nM | – | 0.38 nM | 352 | 204 | 362 | 424 | no binding | no binding | no binding | no binding | 398 | –
B4 | 0.44 nM | – | 0.49 nM | – | – | – | – | – | – | – | – | – | 0.0493 nM
